Legend:
Assay in all cases: holdup assay
Set-up in all cases: key: below the threshold = too weak to quantify, mostly under pKd 3.1 to 4
Conditions in all cases: plain residues with an end cap or a label only (N-terminal biotin on a linker: ado-ado)
APBA3_1, O96018 = target: T1, APBA3_1, O96018
T1 sequence (O96018 389-490, limits assumed, looked up): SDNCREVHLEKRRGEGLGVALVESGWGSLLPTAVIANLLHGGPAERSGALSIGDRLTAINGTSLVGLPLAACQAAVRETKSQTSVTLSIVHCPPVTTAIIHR

CASK, O14936 = target: CASK, O14936
DFNB31_3, Q9P202 = target: T2, DFNB31_3, Q9P202
T2 sequence (Q9P202 811-907, limits assumed, looked up): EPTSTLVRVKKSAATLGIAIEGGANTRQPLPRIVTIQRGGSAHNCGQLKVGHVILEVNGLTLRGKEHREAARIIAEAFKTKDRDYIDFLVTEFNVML

DLG2_2, Q15700 = target: DLG2_2, Q15700
DLG2_3, Q15700 = target: DLG2_3, Q15700
DLG5_1, Q8TDM6 = target: DLG5_1, Q8TDM6
FRMPD2_2, Q68DX3 = target: FRMPD2_2, Q68DX3
FRMPD4, Q14CM0 = target: FRMPD4, Q14CM0
GIPC2, Q8TF65 = target: GIPC2, Q8TF65
GOPC, Q9HD26 = target: GOPC, Q9HD26
GRID2IP_1, A4D2P6 = target: GRID2IP_1, A4D2P6
GRIP2_6, Q9C0E4 = target: GRIP2_6, Q9C0E4
IL16_4, Q14005 = target: IL16_4, Q14005
Inadl_1, Q8NI35 = target: Inadl_1, Q8NI35
LDB3, O75112 = target: LDB3, O75112
LIN7C, Q9NUP9 = target: T3, LIN7C, Q9NUP9
T3 sequence (Q9NUP9 88-185, limits assumed, looked up): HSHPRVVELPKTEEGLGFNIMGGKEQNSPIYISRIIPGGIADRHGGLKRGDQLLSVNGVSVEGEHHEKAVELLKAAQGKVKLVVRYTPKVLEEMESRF

MAGI2_2, Q86UL8 = target: MAGI2_2, Q86UL8
MAGI2_3, Q86UL8 = target: MAGI2_3, Q86UL8
MPDZ_10, O75970 = target: T4, MPDZ_10, O75970
T4 sequence (O75970 1624-1722, limits assumed, looked up): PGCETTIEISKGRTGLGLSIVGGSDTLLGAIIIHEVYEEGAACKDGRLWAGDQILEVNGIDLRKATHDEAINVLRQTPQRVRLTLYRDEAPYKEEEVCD

MPDZ_12, O75970 = target: T5, MPDZ_12, O75970
T5 sequence (O75970 1857-1958, limits assumed, looked up): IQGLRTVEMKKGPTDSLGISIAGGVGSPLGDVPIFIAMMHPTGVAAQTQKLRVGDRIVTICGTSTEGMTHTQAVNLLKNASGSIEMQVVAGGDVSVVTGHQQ

NHERF2_2, Q15599 = target: NHERF2_2, Q15599
NHERF3_1, Q5T2W1 = target: T6, NHERF3_1, Q5T2W1
T6 sequence (Q5T2W1 4-100, limits assumed, looked up): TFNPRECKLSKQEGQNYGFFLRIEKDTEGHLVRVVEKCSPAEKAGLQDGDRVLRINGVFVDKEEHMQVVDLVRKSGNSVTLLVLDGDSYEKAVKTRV

PARD3B_1, Q8TEW8 = target: T7, PARD3B_1, Q8TEW8
T7 sequence (Q8TEW8 196-299, limits assumed, looked up): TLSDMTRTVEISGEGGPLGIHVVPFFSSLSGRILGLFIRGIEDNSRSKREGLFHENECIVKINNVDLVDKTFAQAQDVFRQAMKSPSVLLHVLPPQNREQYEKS

RAPGEF6, Q8TEU7 = target: T8, RAPGEF6, Q8TEU7
T8 sequence (Q8TEU7 525-625, limits assumed, looked up): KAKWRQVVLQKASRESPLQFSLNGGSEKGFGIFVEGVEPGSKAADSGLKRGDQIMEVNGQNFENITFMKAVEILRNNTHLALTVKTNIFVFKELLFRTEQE

SCRIB_1, Q14160 = target: SCRIB_1, Q14160
SNTA1, Q13424 = target: T9, SNTA1, Q13424
T9 sequence (Q13424 82-180, limits assumed, looked up): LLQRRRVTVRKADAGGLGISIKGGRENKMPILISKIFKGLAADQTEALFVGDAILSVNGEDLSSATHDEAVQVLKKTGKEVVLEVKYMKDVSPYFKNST

SNTG1, Q9NSN8 = target: T10, SNTG1, Q9NSN8
T10 sequence (Q9NSN8 52-150, limits assumed, looked up): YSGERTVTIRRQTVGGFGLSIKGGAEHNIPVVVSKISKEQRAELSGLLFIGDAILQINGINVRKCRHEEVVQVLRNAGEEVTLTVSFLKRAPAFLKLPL

TJP1_3, Q07157 = target: TJP1_3, Q07157
Chain of TJP1_3, Q07157 (Q07157 416-512): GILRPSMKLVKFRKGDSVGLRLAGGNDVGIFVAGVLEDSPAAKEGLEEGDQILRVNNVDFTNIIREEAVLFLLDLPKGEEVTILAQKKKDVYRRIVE

Chain of MAGI2_3, Q86UL8 (Q86UL8 600-682): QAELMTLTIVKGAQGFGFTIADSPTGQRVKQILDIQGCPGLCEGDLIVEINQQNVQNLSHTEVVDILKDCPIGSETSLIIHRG
Chain of SCRIB_1, Q14160 (Q14160 718-814): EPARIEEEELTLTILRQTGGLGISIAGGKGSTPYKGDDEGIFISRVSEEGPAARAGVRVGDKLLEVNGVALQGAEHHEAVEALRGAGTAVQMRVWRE
Chain of Inadl_1, Q8NI35 (Q8NI35 113-229): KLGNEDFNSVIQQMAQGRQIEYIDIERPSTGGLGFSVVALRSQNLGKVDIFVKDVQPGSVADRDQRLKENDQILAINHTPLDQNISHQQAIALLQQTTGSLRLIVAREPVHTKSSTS
Chain of DLG5_1, Q8TDM6 (Q8TDM6 617-713): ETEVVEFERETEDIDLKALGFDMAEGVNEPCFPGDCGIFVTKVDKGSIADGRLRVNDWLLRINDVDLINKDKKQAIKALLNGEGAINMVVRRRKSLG
Chain of IL16_4, Q14005 (Q14005 1229-1329): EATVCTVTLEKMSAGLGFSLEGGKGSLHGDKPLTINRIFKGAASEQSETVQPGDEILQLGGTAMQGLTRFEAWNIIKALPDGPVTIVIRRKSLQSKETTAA
Chain of NHERF2_2, Q15599 (Q15599 142-238): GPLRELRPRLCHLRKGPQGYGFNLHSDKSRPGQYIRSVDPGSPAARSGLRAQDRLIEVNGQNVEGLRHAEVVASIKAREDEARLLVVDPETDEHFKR
Chain of GRID2IP_1, A4D2P6 (A4D2P6 1-87): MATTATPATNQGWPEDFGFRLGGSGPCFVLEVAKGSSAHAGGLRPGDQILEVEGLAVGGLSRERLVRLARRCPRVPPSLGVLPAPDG
Chain of MAGI2_2, Q86UL8 (Q86UL8 410-522): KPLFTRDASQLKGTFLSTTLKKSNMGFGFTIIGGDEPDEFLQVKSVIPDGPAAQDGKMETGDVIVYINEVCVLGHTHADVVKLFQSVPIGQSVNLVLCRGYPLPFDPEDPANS
Chain of CASK, O14936 (O14936 487-570): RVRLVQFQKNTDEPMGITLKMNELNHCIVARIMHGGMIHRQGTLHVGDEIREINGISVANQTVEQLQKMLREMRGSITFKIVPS
Chain of FRMPD4, Q14CM0 (Q14CM0 67-160): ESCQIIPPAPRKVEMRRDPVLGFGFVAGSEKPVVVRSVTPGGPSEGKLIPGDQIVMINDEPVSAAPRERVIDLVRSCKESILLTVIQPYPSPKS
Chain of FRMPD2_2, Q68DX3 (Q68DX3 944-1038): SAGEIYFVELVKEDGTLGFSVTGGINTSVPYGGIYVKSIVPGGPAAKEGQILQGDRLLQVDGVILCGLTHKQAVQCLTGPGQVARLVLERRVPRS
Chain of GRIP2_6, Q9C0E4 (Q9C0E4 648-740): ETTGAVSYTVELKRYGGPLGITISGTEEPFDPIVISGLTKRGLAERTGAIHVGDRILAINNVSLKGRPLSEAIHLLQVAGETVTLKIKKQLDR
Chain of GIPC2, Q8TF65 (Q8TF65 112-203): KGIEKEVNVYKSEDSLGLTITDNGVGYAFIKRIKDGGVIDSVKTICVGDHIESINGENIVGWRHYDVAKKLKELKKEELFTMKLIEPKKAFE
Chain of LDB3, O75112 (O75112 1-94): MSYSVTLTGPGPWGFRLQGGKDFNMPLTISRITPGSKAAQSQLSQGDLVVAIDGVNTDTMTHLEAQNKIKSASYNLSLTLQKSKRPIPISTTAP

Binder | pKd (APBA3_1, O96018) | pKd (CASK, O14936) | pKd (DFNB31_3, Q9P202) | pKd (DLG2_2, Q15700) | pKd (DLG2_3, Q15700) | pKd (DLG5_1, Q8TDM6) | pKd (FRMPD2_2, Q68DX3) | pKd (FRMPD4, Q14CM0) | pKd (GIPC2, Q8TF65) | pKd (GOPC, Q9HD26) | pKd (GRID2IP_1, A4D2P6) | pKd (GRIP2_6, Q9C0E4) | pKd (IL16_4, Q14005) | pKd (Inadl_1, Q8NI35) | pKd (LDB3, O75112) | pKd (LIN7C, Q9NUP9) | pKd (MAGI2_2, Q86UL8) | pKd (MAGI2_3, Q86UL8) | pKd (MPDZ_10, O75970) | pKd (MPDZ_12, O75970) | other results
AQRARSPSDV [GPR12, P47775] | below the threshold | below the threshold | 3.59 | 3.49 | 3.67 | below the threshold | below the threshold | below the threshold | below the threshold | below the threshold | below the threshold | below the threshold | below the threshold | below the threshold | below the threshold | below the threshold | 3.65 | 3.7 | 4.09 | below the threshold | pKd (NHERF2_2, Q15599): below the threshold; pKd (NHERF3_1, Q5T2W1): below the threshold; pKd (PARD3B_1, Q8TEW8): below the threshold; pKd (RAPGEF6, Q8TEU7): below the threshold; pKd (SCRIB_1, Q14160): below the threshold; pKd (SNTA1, Q13424): below the threshold; pKd (SNTG1, Q9NSN8): below the threshold; pKd (TJP1_3, Q07157): below the threshold
RQKEVRESKC [SCN8A, Q9UQD0] | below the threshold | below the threshold | 3.95 | below the threshold | 4.07 | below the threshold | below the threshold | below the threshold | 4.05 | below the threshold | below the threshold | below the threshold | 3.68 | below the threshold | below the threshold | 3.84 | 4.02 | 3.51 | 3.8 | below the threshold | pKd (NHERF2_2, Q15599): 3.57; pKd (NHERF3_1, Q5T2W1): 4.71; pKd (PARD3B_1, Q8TEW8): below the threshold; pKd (RAPGEF6, Q8TEU7): below the threshold; pKd (SCRIB_1, Q14160): 4.53; pKd (SNTA1, Q13424): 4.65; pKd (SNTG1, Q9NSN8): 3.77; pKd (TJP1_3, Q07157): below the threshold
QSGLYESEEL [MYOT, Q9UBF9] | below the threshold | below the threshold | 3.5 | below the threshold | 3.88 | below the threshold | below the threshold | below the threshold | below the threshold | below the threshold | below the threshold | 4.67 | below the threshold | below the threshold | 5.2 | 3.58 | 4.08 | below the threshold | below the threshold | below the threshold | pKd (NHERF2_2, Q15599): 4.04; pKd (NHERF3_1, Q5T2W1): 4.44; pKd (PARD3B_1, Q8TEW8): 3.86; pKd (RAPGEF6, Q8TEU7): 3.57; pKd (SCRIB_1, Q14160): 3.76; pKd (SNTA1, Q13424): below the threshold; pKd (SNTG1, Q9NSN8): below the threshold; pKd (TJP1_3, Q07157): below the threshold
EDGESWEYQI [TRPV6, Q9H1D0] | below the threshold | below the threshold | 3.6 | below the threshold | 3.48 | below the threshold | below the threshold | 3.73 | below the threshold | below the threshold | below the threshold | 3.8 | 3.5 | 4.41 | below the threshold | 3.72 | below the threshold | below the threshold | below the threshold | below the threshold | pKd (NHERF2_2, Q15599): 3.67; pKd (NHERF3_1, Q5T2W1): below the threshold; pKd (PARD3B_1, Q8TEW8): 3.85; pKd (RAPGEF6, Q8TEU7): below the threshold; pKd (SCRIB_1, Q14160): below the threshold; pKd (SNTA1, Q13424): below the threshold; pKd (SNTG1, Q9NSN8): 3.82; pKd (TJP1_3, Q07157): below the threshold
PYSESDDDWC [CACNA1A, O00555] | below the threshold | 3.53 | 3.6 | below the threshold | 3.7 | below the threshold | below the threshold | 4.01 | below the threshold | below the threshold | below the threshold | below the threshold | below the threshold | below the threshold | below the threshold | below the threshold | below the threshold | below the threshold | below the threshold | 3.92 | pKd (NHERF2_2, Q15599): 3.74; pKd (NHERF3_1, Q5T2W1): 3.95; pKd (PARD3B_1, Q8TEW8): 3.61; pKd (RAPGEF6, Q8TEU7): below the threshold; pKd (SCRIB_1, Q14160): below the threshold; pKd (SNTA1, Q13424): below the threshold; pKd (SNTG1, Q9NSN8): 3.66; pKd (TJP1_3, Q07157): below the threshold

Source: PMC9482650, “Quantitative fragmentomics allow affinity mapping of interactomes” (Nature Communications, 2022)
